Results reported in PMC8000724, “Trans-Epithelial Transport, Metabolism, and Biological Activity Assessment of the Multi-Target Lupin Peptide [sequence] (P5) and Its Metabolite [sequence] (P5-Met)” (Nutrients, 2021).

Key:
[1] = target: 3-hydroxy-3-methylglutaryl coenzyme A reductase (HMGCoAR), catalytic domain; experiment: cell-based or functional assay
[2] = target: T1, proprotein convertase subtilisin/kexin type-9 (PCSK9), His-tagged (UniProt Q8NBP7 31-692); experiment: ELISA; CircuLex in vitro PCSK9-LDLR binding assay kit; plate pre-coated with recombinant LDLR-AB domain; peptide (0.1-100 uM) in reaction buffer, then His-tagged PCSK9 added; 2 h at room temperature; detected with biotinylated anti-His-tag antibody, HRP-streptavidin and TMB, absorbance at 450 nm; details: both partners purified
T1 construct: PCSK9, recombinant His-tagged protein of the kit; The functional rows use this molecule; also called His-tagged PCSK9
T1 sequence (Q8NBP7 31-692): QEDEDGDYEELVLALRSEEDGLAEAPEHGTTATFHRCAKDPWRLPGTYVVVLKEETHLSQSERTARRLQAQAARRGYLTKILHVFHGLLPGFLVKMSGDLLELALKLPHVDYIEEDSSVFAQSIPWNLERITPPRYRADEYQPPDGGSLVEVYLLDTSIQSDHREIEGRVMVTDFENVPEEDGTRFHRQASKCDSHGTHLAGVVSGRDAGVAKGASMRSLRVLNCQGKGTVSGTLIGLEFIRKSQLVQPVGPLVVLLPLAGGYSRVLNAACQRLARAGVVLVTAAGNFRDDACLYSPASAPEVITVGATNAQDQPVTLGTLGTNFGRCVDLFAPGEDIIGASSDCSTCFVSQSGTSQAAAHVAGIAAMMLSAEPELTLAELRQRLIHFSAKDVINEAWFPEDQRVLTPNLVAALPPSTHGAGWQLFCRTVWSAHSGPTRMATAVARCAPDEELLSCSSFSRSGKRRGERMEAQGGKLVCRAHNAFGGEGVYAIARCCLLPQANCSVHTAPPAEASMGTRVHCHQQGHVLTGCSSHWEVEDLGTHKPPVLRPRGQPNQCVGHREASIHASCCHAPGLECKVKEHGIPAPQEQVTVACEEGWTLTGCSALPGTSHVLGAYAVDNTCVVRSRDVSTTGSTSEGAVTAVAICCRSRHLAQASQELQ

Chain of 3-hydroxy-3-methylglutaryl coenzyme A reductase (HMGCoAR), catalytic domain (P04035 whole entry, the tested form may be a part): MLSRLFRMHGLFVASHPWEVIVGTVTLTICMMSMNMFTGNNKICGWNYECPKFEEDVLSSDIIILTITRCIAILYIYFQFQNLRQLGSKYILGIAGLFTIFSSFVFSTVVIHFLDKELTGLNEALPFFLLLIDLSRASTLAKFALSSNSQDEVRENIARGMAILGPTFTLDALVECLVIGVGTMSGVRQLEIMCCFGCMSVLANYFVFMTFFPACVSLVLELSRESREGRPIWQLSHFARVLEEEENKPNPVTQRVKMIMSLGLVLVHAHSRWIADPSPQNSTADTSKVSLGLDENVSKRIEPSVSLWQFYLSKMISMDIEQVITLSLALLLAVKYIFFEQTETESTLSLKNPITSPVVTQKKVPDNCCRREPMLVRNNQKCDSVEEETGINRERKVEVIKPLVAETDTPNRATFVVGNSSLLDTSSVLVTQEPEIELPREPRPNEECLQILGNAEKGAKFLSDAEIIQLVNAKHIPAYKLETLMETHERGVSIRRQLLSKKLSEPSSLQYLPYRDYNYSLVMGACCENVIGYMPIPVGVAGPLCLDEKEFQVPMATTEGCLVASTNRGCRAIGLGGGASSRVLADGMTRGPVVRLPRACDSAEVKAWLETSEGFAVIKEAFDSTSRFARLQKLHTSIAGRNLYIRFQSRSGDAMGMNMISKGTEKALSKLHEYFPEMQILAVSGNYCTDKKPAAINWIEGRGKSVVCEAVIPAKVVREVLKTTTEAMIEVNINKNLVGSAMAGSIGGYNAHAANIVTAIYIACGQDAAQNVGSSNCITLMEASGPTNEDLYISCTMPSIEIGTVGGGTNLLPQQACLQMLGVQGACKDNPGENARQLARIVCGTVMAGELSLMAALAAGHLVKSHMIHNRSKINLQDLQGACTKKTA

| in vitro HMGCoAR activity (NADPH oxidation, absorbance at 340 nm, 37 °C), peptide 10-500 µM; IC50 [1] | IC50 [2] | Binder |
| --- | --- | --- |
| 175 µM | 1.7 µM | LPKHSDAD (source: synthetic peptide (GeneScript, >95% purity)) [P5-met (LPKHSDAD), metabolite of lupin peptide P5] |
| 147 µM | 1.3 µM | LILPKHSDAD (peptide from the peptic hydrolysate of lupin protein; also called parent peptide; source: synthetic peptide (GeneScript, >95% purity)) [lupin peptide P5 (LILPKHSDAD)] |
